B1: 28(2) (ssRNA)
RNA: CGUAGGGGCCUCCACAGCGUAAGCUUGGACUUAAACCACG
modifications: as SEQ 28 plus 2'-OMe at A4
B2: 29(3) (ssRNA)
RNA: B1 RNA with G19A, A21U, A22C, U31A, U32C
modifications: as SEQ 29 plus 2'-F at G7,G28; 3' idT
B3: 28(7) (ssRNA)
RNA: B1 RNA
modifications: as SEQ 28 plus 2'-F at G7
B4: 28(5) (ssRNA)
RNA: B1 RNA
modifications: as SEQ 28 plus 2'-OMe at 4,20-22
B5: 28(13) (ssRNA)
RNA: B1 RNA
modifications: as SEQ 28 plus 2'-OMe at 4,20-22,31; 3' idT
B6: 28(8) (ssRNA)
RNA: B1 RNA
modifications: as SEQ 28 plus 2'-F at G8
B7: 29(2) (ssRNA)
RNA: B1 RNA with G19A, A21U, A22C, U31A, U32C
modifications: as SEQ 29 plus 2'-F at G7,G28 and 2'-OMe at A31; 3' idT
B8: 28(12) (ssRNA)
RNA: B1 RNA
modifications: as SEQ 28 plus 2'-F at A33
B9: 28(6) (ssRNA)
RNA: B1 RNA
modifications: as SEQ 28 plus 2'-F at A4
B10: 28(10) (ssRNA)
RNA: B1 RNA
modifications: as SEQ 28 plus 2'-F at G28
B11: 28(14) (ssRNA)
RNA: B1 RNA
modifications: as SEQ 28 plus 2'-OMe at 4,20-22,31; 2'-F at G7,G28; 3' idT
B12: 28(11) (ssRNA)
RNA: B1 RNA
modifications: as SEQ 28 plus 2'-F at A29
B13: 28(9) (ssRNA)
RNA: B1 RNA
modifications: as SEQ 28 plus 2'-F at A14
B14: 3(16) (ssRNA)
RNA: GGAUUGGGGCCUCCACAGCUGCUCAGCUUGGACUAAACCAAUCC
modifications: 2'-OMe at 1-7,17-28,36-44; 2'-F other pyrimidines
B15: 3(15) (ssRNA)
RNA: B14 RNA
modifications: 2'-OMe at 1-7,17-28,35,36,38-44; 2'-F other pyrimidines
B16: 3(8) (ssRNA)
RNA: B14 RNA
modifications: 2'-OMe at 1-7,17-28,36,38-44; 2'-F other pyrimidines
B17: 3(14) (ssRNA)
RNA: B14 RNA
modifications: 2'-OMe at 1-7,17-28,32,36,38-44; 2'-F other pyrimidines
B18: 3(10) (ssRNA)
RNA: B14 RNA
modifications: 2'-OMe at 1-7,9,17-28,36,38-44; 2'-F other pyrimidines
B19: 3(12) (ssRNA)
RNA: B14 RNA
modifications: 2'-OMe at 1-7,17-28,30,36,38-44; 2'-F other pyrimidines
B20: 3(9) (ssRNA)
RNA: B14 RNA
modifications: 2'-OMe at 1-8,17-28,36,38-44; 2'-F other pyrimidines
B21: 3(11) (ssRNA)
RNA: B14 RNA
modifications: 2'-OMe at 1-7,15,17-28,36,38-44; 2'-F other pyrimidines
B22: 3(13) (ssRNA)
RNA: B14 RNA
modifications: 2'-OMe at 1-7,17-28,31,36,38-44; 2'-F other pyrimidines
B23: SEQ ID NO: 4 (ssRNA)
RNA: B14 RNA with A3C, U42G
modifications: 2'-F pyrimidines
B24: 11(22) (ssRNA)
RNA: AUUGGGGCCUCCACAGCGCUCGCUUGGACUAAACCAAU
modifications: 2'-OMe at 1-5,15-26,32-38; 2'-F at 8-12,14,29,30; PS between 11 and 12
B25: 11(23) (ssRNA)
RNA: B24 RNA
modifications: 2'-OMe at 1-5,15-26,32-38; 2'-F at 8-12,14,29,30; PS between 12 and 13
B26: 11(28) (ssRNA)
RNA: B24 RNA
modifications: 2'-OMe at 1-5,15-26,32-38; 2'-F at 8-12,14,29,30; PS between 28 and 29
B27: 11(24) (ssRNA)
RNA: B24 RNA
modifications: 2'-OMe at 1-5,15-26,32-38; 2'-F at 8-12,14,29,30; PS between 13 and 14
B28: 11(29) (ssRNA)
RNA: B24 RNA
modifications: 2'-OMe at 1-5,15-26,32-38; 2'-F at 8-12,14,29,30; PS between 29 and 30
B29: 11(31) (ssRNA)
RNA: B24 RNA
modifications: 2'-OMe at 1-5,15-26,32-38; 2'-F at 8-12,14,29,30; PS between 31 and 32
B30: 11(26) (ssRNA)
RNA: B24 RNA
modifications: 2'-OMe at 1-5,15-26,32-38; 2'-F at 8-12,14,29,30; PS between 26 and 27
B31: 11(27) (ssRNA)
RNA: B24 RNA
modifications: 2'-OMe at 1-5,15-26,32-38; 2'-F at 8-12,14,29,30; PS between 27 and 28
B32: SEQ ID NO: 37 (ssRNA)
RNA: GGGUAUUGGGGCCUCCACAGUAAAUUCUUGGACUAAACCAACUCGA
modifications: 2'-F pyrimidines
B33: SEQ ID NO: 44 (ssRNA)
RNA: B32 RNA with U21A, A23C, A24U
modifications: 2'-F pyrimidines
B34: SEQ ID NO: 42 (ssRNA)
RNA: B32 RNA with U21A, A22U
modifications: 2'-F pyrimidines
B35: SEQ ID NO: 43 (ssRNA)
RNA: B32 RNA with U21A
modifications: 2'-F pyrimidines
B36: SEQ ID NO: 45 (ssRNA)
RNA: B32 RNA with U21A, U25G
modifications: 2'-F pyrimidines
B37: SEQ ID NO: 41 (ssRNA)
RNA: GGGUAUUGGGGCCUCCACAUGGAUACAUUGGACUAAACCAACUCGA
modifications: 2'-F pyrimidines
B38: SEQ ID NO: 38 (ssRNA)
RNA: GGGUAUUGGGGCCUCCACGCUAGAAGGCUGGACUAAACCAACUCGA
modifications: 2'-F pyrimidines
B39: SEQ ID NO: 40 (ssRNA)
RNA: B38 RNA with U21A, G23U, A24G, A25G, G26U
modifications: 2'-F pyrimidines
B40: SEQ ID NO: 39 (ssRNA)
RNA: GGGUAUUGGGGCCUCCACGUAACUAAACUGGACUAAACCAACUCGA
modifications: 2'-F pyrimidines

Where a chain is given by its changes, count along the chain named.

For the first data set, the target named is T1, ADAMTS5 (UniProt Q9UNA0 Q9UNA0:262-622).
T1 sequence: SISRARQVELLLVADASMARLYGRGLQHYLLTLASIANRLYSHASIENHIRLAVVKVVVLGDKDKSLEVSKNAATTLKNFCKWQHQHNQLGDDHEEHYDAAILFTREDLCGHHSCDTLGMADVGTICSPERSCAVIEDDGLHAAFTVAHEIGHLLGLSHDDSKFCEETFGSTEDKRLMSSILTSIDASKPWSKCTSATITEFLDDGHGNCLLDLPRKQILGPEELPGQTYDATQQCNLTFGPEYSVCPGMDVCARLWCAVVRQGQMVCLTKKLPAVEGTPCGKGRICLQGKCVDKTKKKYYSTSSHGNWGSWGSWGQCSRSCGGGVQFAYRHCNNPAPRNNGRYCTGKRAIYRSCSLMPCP
Briefly: inhibition; method 1. As to conditions: tags: R&D Systems. The protocol: (§1) Whether an aptamer having the nucleotide sequence shown in SEQ ID NO: 1 inhibits the enzyme activity of ADAMTS5 was evaluated by the following method. As a substrate of ADAMTS5, the G1-IGD-G2 domain of aggrecan (manufactured by R&D systems) was used. ADAMTS5 specifically cleaves in between the 392nd glutamic acid and the 393rd alanine in the G1-IGD-G2 domain and produces two fragments. These fragments have faster electrophoretic mobility than uncleaved G1-IGD-G2. Thus, the enzyme activity of ADAMTS5 can be measured by quantifying the band intensity of G1-IGD-G2 by SDS-PAGE electrophoresis. The assay was performed in a solution A buffer with a reaction mixture volume of 10 μL. First, a mixture (10 μL) of a nucleic acid and ADAMTS5 was prepared and incubated at 25° C. for 15 min. To a substrate solution (5 μL) diluted with solution A was added a mixture (5 μL) of the nucleic acid and ADAMTS5 to start the enzyme reaction. The final concentration of ADAMTS5 in the reaction solution was 5 nM, and the final substrate concentration was 50 μg/mL. The reaction solution was incubated at 37° C. for 2 hr, 2 μL of solution D was added, and the mixture was heated at 95° C. for 2 min to stop the enzyme reaction of ADAMTS5. Solution D contains 0.25 M tris (pH 6.8), 10% SDS, 50% glycerol, 0.25% bromo phenolblue, and 20% 2-mercaptoethanol. The heat-treated reaction solution was electrophoresed by 7.5% SDS-PAGE and stained with SYPRO Orange (manufactured by Sigma-Aldrich). The staining was performed according to the manual of Sigma-Aldrich and detected using STORM840 manufactured by GE Healthcare. […] The amount of uncleaved substrate in each reaction solution was quantified from the band intensity and the standard curve. The substrate cleavage efficiency of ADAMTS5 under these reaction conditions was 80-100%. The inhibition rate of the test substance was calculated using the following equation.
The aptamers having the sequences shown in SEQ ID NOs: 28(l)-28(18) (SEQ ID NO: 28 lineage) and SEQ ID NOs: 29(1)-29(3) (SEQ ID NO: 29 lineage) were all produced by chemical synthesis.
In the case of B1, the activity amounted to 68.7 % inhibition.
Take B2: the activity amounted to 80.9 % inhibition.
For the molecule B3, the activity was 84.1 % inhibition.
Turning to B4, the activity amounted to 77.3 % inhibition.
The molecule B5 had an activity of 86.1 % inhibition.
B6 showed an activity of 71.1 % inhibition.
Consider B7, for which the activity worked out at 89.8 % inhibition.
In the case of B8, the activity is 67.8 % inhibition.
Molecule B9 showed an activity of 76.8 % inhibition.
B10 came in with an activity of 76.6 % inhibition.
B11 yielded an activity of 90.6 % inhibition.
As to B12, the activity was found to be 42.6 % inhibition.
Take B13: the activity turned out to be 69.7 % inhibition.

For another data set, the target named is T1, ADAMTS5. The data set is described as follows: inhibition; 10 nM. The following applies: tags: R&D Systems. The protocol: as §1
The nucleic acids shown in SEQ ID NOs: 3(1)-3(16) were all produced by chemical synthesis. Whether these nucleic acids inhibit the enzyme activity of ADAMTS5 was determined by a method similar to that in Example 1.
Regarding B14, the activity was determined as 53.6 % inhibition.
Still for that read-out and setting: with B15 the figure was 27.6 % inhibition; with B16, 52.8 % inhibition.
Molecule B17 displayed an activity of 1.2 % inhibition.
B18 gave an activity of 25.6 % inhibition.
Still for that read-out and setting: with B19 the figure was 57.5 % inhibition.
Take B20: the activity was 25.8 % inhibition.
Same read-out and setting: with B21 the figure was 48.1 % inhibition.
B22 registered an activity of 37 % inhibition.

The next data set deals with T1, ADAMTS5. The data set is described as follows: inhibition; 30 nM. As to conditions: tags: R&D Systems. On the procedure:
as §1
Whether these aptamers inhibit the enzyme activity of ADAMTS5 was tested by a method similar to that in Example 1. The final concentration of the nucleic acid was fixed to 30 nM in the test.
B23 yielded an activity of 23 % inhibition.

The next data set addresses T1, ADAMTS5. Briefly: inhibition; 10 nM aptamer, aggrecan G1-IGD-G2 cleavage, method 1. The following applies: tags: R&D Systems. On the procedure:
as §1
The aptamers having the sequences shown in SEQ ID NOs: 10(1)-10(8) and 11(1)-11(35), SEQ ID NO: 13-15 were all produced by chemical synthesis.
B24 gave an activity of 49.8 % inhibition.
In turn, B25 had an activity of 47.9 % inhibition.
The same measure, in the same setting: with B26 the figure was 44.8 % inhibition; with B27, 46.3 % inhibition.
Same read-out and setting: with B28 the figure was 56.5 % inhibition; with B29, 56.3 % inhibition; with B30, 47.2 % inhibition.
B31 yielded an activity of 48.2 % inhibition.

For another data set, the target named is T1, ADAMTS5. Briefly: SPR; RU ratio >=40%. The following applies: tags: R&D Systems. On the technique in general: Surface plasmon resonance follows binding to a sensor surface in real time, without labels.
As to B32, the binding result is “binds”.
Still for that read-out and setting: with B33 the entry was “binds”; with B34, “binds”; with B35, “binds”.
For the molecule B36, the binding result is “binds”.
In the case of B37, the binding result is “binds”.
Same read-out and setting: with B38 the entry was “binds”; with B39, “binds”.
As to B40, the binding result is recorded as “binds”.

These data come from patent publication US20210246451, “APTAMER FOR ADAMTS5 AND USE FOR APTAMER FOR ADAMTS5” (RIBOMIC INC., published 2021).
